Results taken from a protein production outcome set (Wang et al. 2014).

Assay: label from the status in PepcDB records

Sequence	protein production
MPGAEQRWPARAALLLVLIAAAGLARGQETPSGPPPRVAMVVGNSAYQNVPALPNPAGDAELVAEKLWESGFEVIETVDADRETMLADLATFRSRLREGSEALFFYAGHGVQIGGRNYLLPVSVAPSSVEDLKAQAIDAQLFLDVMAQSGARLTLVLLDACRNNPFLDIPSDGAEAIATRALSIGASRAAVERGLRDLAAASRGGLAEMSAGRGEALISFATAPGQVAFDGRGRHSPYTSALAGSIDEPGLELVDLFRRVRGAVREATGGQQIAWTASTLESRFYFKPPADDLRSATTGMSTGSDTLGALPPRRVVDRTFWRAIRDTDRLDAFTAYVRTMPDGAFVAEAKEKIRSLGGDPEAIPVSDLSLPERPRGFVLADPAAQADLAATLDRAPASVPIGTGAARIGAAAGRAGWVHVAAAPRLGAVSAGGTRLEAGSVRWMEADQPLDYLPGIGSNGGLDSLRAEALREGGTTEPLEAAVETYVDACDMLAGNPYDSQRVTAGTRQFILDRNHDAAIAVCEIAVARHPEVVRFWAELARSYRAAGRYEEALHWQQKAVDAGYASAMVYLGQMFLDGQAVPQDFDRARELFEAADARGETAALTALAWIHRAGVGVPEDPARALDFYRQGAARGNDWAMTNIGEFYQKGLSVARDPAEAVRWYTAAAKSGELTAQTRLARMYQTGDGIAVDEAQARFWFETAAGRGVPNALTRLGLMYEQGQGVDRDLEAAARLYGRAAAEGDAEAWLRLGRLEASDAPLFDRPERALPLLEKALAAQVPGAARELGRLYETGRGVTKDLARARALYVQEAGANPWAARDAGRAFASDEGAPADPAQAARWYRAAAEGGVPWAALDLGRLYETGRGVPQDRTEALVLYAAAARPGGDARAADAARRAAAGYSAEETIRAAQLLLGRLGAEVGAPDGRIGPATRDALARVFAAQGRAAPGTRIDFDLLAELSAMDEERLP	failed
MPGELLGAHYGHCFGCGEEQSHGLHLAARAGQGVSITAEFTVQPAHQGAPGLAHGGVLATALDETLGSLNWLLRTIAVTGRLETDFVRPVPVGTVLYLEAEVTAVAGRKIYSTATGRIGGPEGPVAVRADALFVEVKVDHFTDNGRQEEIRAAMNDPDQLRRARAFEVNPLEHHHHHH	failed
MPGFTAPTRRQVLSLYKEFIKNANQFNNYNFREYFLSKTRTTFRKNMNQQDPKVLMNLFKEAKNDLGVLKRQSVISQMYTFDRLVVEPLQGRKH	failed
MPGGRRRGFDDQVALQTAMELFWRQGYEGTSITDLTKALGINPPSLYAAFGSKRDLFEKTLDRYMCERTLQLEEAMVRPTAHEAVLDFLTGRVEVFTAPGQPFGCMTVQAGLASGEPHHEIVDLLTAAREQMRQTVLDRFEKALADGDLPAGTDCTALARYVMAAVYGLSVEAASGAPREELTAAAILAAQVVPRAQM	not failed
MPGKGEGSPVGIAILGYGTVGSQVLRLLTENHNDFQHRAGGPLEIKGVAASSVEKHRGSLADQLGLLTDDARSLIARDDVDIVVEVIGGIDYPRELILEALHSGKSVVTANKALVAAHSEELAAAADEAGVDLYFEAAVAAAIPVLGPLRRSLAGDQIQSVAGIVNGTTNFILDAMDSTGASYDDMLAEATRLGYAEADPTADVEGHDAASKAAILASLAFHTRVTYADVYCEGISKITADDINAAKEAGFTIKLLAICERLNVDGVEKVSARVHPTLVPRNHPLASVDKSFNAIFVEAEAAGRLMFYGNGAGGNPTASAVLGDIVGAARNKVFGGRAPGESTYADLPIAPFGEVPTRFHIDMEVEDRVGVLADLAKTFSNHGISLRTVRQAEKDGHARLIVVTHTAKESELEATVEQIKNSDSVKKINSVIRLAGLEHHHHHH	not failed
MPGPKKPVTPEDIIRLTFVSNPSVSPEGDKVAYLATKADEKENTYRSGIWLAEEDSYRPLTGGPYDRCPAWSPDGEIIAFSRTVNSNQRKRHYIAIVSPKGGEPQVLHESVSPATSIKWSSQGSMIGYLSRKPTGREWKPYSERDVLEIDRIPVWFDSEGWVFDRYWGLTVISYPGGEVLLEKGGVNYNIVDFDFAPDDNTIVYAVSTDMKKPFIHKLVLWDLASGREKTLIEGLTIAAVAFDPRGRYIAVKANDRKRGLFSHYKIFVYDLNSEEFVCLTCDLDLNTLNTVNSDARGPSCLRGMYWDDNGHLYYGVHNAGRMVVMKSRPLGEAEAVLDPSSATVDDFSISRGGDTIAYVKMGPTSPPDIYIYRDDNEYRLTDHNAWFAESRSLAEPVRLQVQSPLGGSIDAWILLPPDAGECSGCLPWILYIHGGPKTSYGYAFIHEFQMLASQGFAVIYSNPRGSDGYSEEFADLRGRYGVDDYSELMKVVDEALSDFPQLDPQRGGVTGGSYGGYMTNVIVTKTRRFKAAVTQRSCSNWISFYGESDIGWYFAPELISAQEPWRDLEKYVDFSPLFSVENIETPLLIIHSTEDFRCPLSGAIQLFTALKLKGVETRLLVFPGENHNLSRSGTPKRRVARLRAIASWFKEHLGSQQRG	failed
MPHDDHEHHHAADSAGAQGRLVWALILTGGFVVFEALAGWKANSLALLTDAVHNLSDVLALGLSWYAMRLTAQPAHAAKTFGYHRAGILAALANSAGLVGVALYILYDAYVRLLSPAPVQADILIGVGGAALLVNAFTAWLVHHGSHDDLNMRSAFLHLLGDVVSTLGAIAAGVAIRYTGLYWLDPAVSVLIALLILWNAKGLMAEVMDILLESTPRDVDMGSMVRDMMQVEGVHGVHHLHVWSISRQLRMLSAHIVTDDIRLSEGEGLQKRVTRLLAQRYGIAHTTLQLESESCQPDSLYCDISRPNHRYHGE	failed
MPHSRPLSRLRASLILLLVSFIWGSAFVAQKTAFDAVEGATAPALGPLAFTGARFLLGALVVLPFALRENRQARSRGAPGAGLLAIFCGIGAVLFAASFTQQLGIIGTSVTNAGFLTALYVPLVPVVALVIFRQSVRKMIWPGAAGCLAGLWLLTGAATNGLSALTAGDLWVLVGALFWAFHVTVVGVMATRSGRPLTLAAAQFLTCGVLGWAGAFAFETPTLAGMAAIAPEIAYAGILSVGVAFTLQVVAQRHTHPAAAAIILSMEMVFASLAAVVVLGERLSGVQWLGAGLILASIIAVESAAALGDRRRGAAGALTP	failed
MPHVRPSNAWRFLRTLWLGAWLAGWALLAQAQQLAPVPEFGARVVDQSGVLDAAQRQRLEAQLAALEQRKGAQVAVLIVPSTAPETIEQYATRAFEKWKIGRDKVDDGVLLLMASDDRALRIEVGYGLEGAIPDSAAGRIINEYIVPRLRAGDWPGAVQAGVTALERRIEGEELPPPAASGRDEGSRLAGIRGWLGENGIAALVVLLILPGPIAAALAGVGVAIYMQSISAGLAMALLVLGIKVIIKALPSGGGGGGGGGGGSGGGGFGGWRGGSRGGSGSGGFGGFRGGGGGRSGGGGASGRWLEHHHHHH	failed
MPIFPKPKVTVILANLGTPDVPTASAVRAFLKQFLSDQRVIEIPKLLWKIILYSFVLPFRPKRVAHAYASVWGQDSPMREILFAQTDALKRQLISHYPQLDLNIVPAMTYGNPGVQHILKDLAASPQEHVILLPLFPQYSATSTAPLYDAFANWIPKQRHLPGLTIIKDYYRHPVFIQALVSSVQRFQQQHGKPQKLLMSFHGIPQPYADKGDPYADRCRETARLVAKQLGLTPDDWAISFQSRFGKQEWVKPYTDELLTTWAANGIKSVQILSPAFSADCLETLEELEIQNAELFLEAGGTSYQYIPALNTSVEHLELLRQLLQAHLDALNYSLAYSAH	failed
MPINFHDANNKYTYAQRNAHISWREMIKSITSIQNKRIVDIGCGGGIYTKELALMGAKSVVGIDFSKEILQAAKENCSGFSNISFIHGDAHSTPYPNDTFDIVISRAVIHHLQDIPTFLREASRILKKNGVLIVQDRTIEDCTIPGSPEHIRGYFFSTFPKLIETESKRRPKTTTIQQELQKYFLHVFPTQTQWEVRKIHDSVEALLQDLSPRTGRSILYELTDYELSQLLQQVQTALQNVSPIIEKDRWTIWSAMKL	failed
MPIPQATADAFCALTGDDQWIHIDPARAEAEGLAGGDTVLPGALLLSLAVGGLGKALGYPEGTRSWQRSYERVRFLRPAPVGSRLRLEARESRRRPAGTGREVVVANVSLYSDLVEAGPVMEGCFTSLLEVAVQPLEHHHHHH	failed
MPIRRRTSGNDRKNIGPRMEVARVREPFSFGVPERRRFAMQFGYDMRPSFWQEVRSNSHLVIAAVGTAALLGVAAVALWLALPTSERQAAASQEQSIPSIPVKTMKIVPAGTTVAAATVPQPARKSDQVSPTVAVAKANIQALAANDPRWTEAQPKTASAAPDQAAAPSQAANQAEPAPNKPAVTAAFAPSATDTDAASELAKVAAPAPAAGSNPDGAKTAAIPEVQPQAPEQQPTASDDGSKARAKPPKVAAAGNGRILRPVTMRSGPKKNAAAIGTVPARTSVQVMICKQWCQIVYNGKTGWVYKSYIKTGG	failed
MPISEDLKQAIRQRARYICEYCHSPERLSANRFTIDHVIPKSLGGSDAFNNLALACRRCNERRYNFVASIDPQTKTIVAIFNPRQQNWAEHFIWTNRGIIIQGTTTTGRATCIRLDLNDTRYPEEDSIQETRRFWLKTGLHPPIDDPCKNLEHHHHHH	not failed
MPIVARSSRVPWVIKYRPKRVEDVVNQDQAKKILVPWFKAWLEGRKPDKRAALLYGPPGVGKTSLVEAIASEFNLEMIELNASDYRRRSDIERIVGAASRKRSMFKRGVVILLDEVDGINPREDAGGIEALLSVIKTTENPIVMTANDPWKDFLRPLREVSLMVEFRPLTLTHIVAVLQRICEAERIECEREALRYIAERSEGDLRSAINDLQAVAEGYGRVTLTLAREIVRGREKSIDIWRTLNQVFYKPRQAWMARKAVSQSEKDYEELIAWINDNIPRKYGEPSDLFRAFDALARATVFLGRAKFGGNWELLSYVFDLMGPGVAYARMEGEVLKTRYSYPEKIRMMAQLRGVRETREKLAEVLAKRLLMSRRAVKTEVLPILHYIFRSSRDPTKPAMIALEYGLTEKMVELLAGQRKSEILKAMATVKKARLGEKPLEPQEAKARRRGEKASRDEGRKAGKRERKGVGLDFFLGEQ	failed
MPKAINYKANSVVYFSGDFDERVFLLNTGSIALTSIDIETGEQVTDYIKTGEFFGVKSALGNYPREESAMVLTDSIVYSFTSKEFEAFAQTNTRIILQMIKVFSRQLRTIHKQLASLLDSEEEKNPEEGLFNVMNAFYSSQHYKAAGQVGTRYKAIYPNGKYISQVDQIVRSTAEVAGRSFGNAEGHNNDAVLAHHEKPAAVTDGTVHLAYNKAEDLFEKGEFEAAYDQYHAVIEAGAGDEITDNAYIGAGKSLHSQKEYVRCLQLLTGFISQHPKSSKIGDALMYLGMCYMDMERPDKAIAFFDKAAILSGADIIGKIRELQKECSSRLQGA	failed
MPKIPITLITGFLGSGKTSFLSEYLNQTDHQGVALIINEIGQAALDQRILSVQYCGEKMLYLNAGCVCCNKRLDLVESLKATLNNYEWHGEILRRIIIETTGLANPAPILWTILSDTFLGVHFEIQSVVACVDALNAREHLTNNEAKEQIVFADSVLLTKTDLQNDSAALTKLKERIQALNPSAEIFDKRAIDYESLFSRKNRARNFMPLEHHHHHH	failed
MPKKAREWGALDVKRAAHPGDGANVWHAVGGVAGLLLQITPTGAKSWLLRTTVAGTRRAMGLGSYPEVGLAEARERAREAKRKIAAGVDPIEERKATRAALAAAQRRSLTFADAADKWIKAKLSDRPEKSQKAVRATLTAYSFPEIGALTVQELTPQDVVRALNTIWTAKPDTATKMRGYLEAILSWATVSGYRTGDNPARWAGNLKELLPAPSVVAKGRAGNFPAVPVARLADWWEELGQREGMGATALRFAALTAARSGEVRGALWSEVDLDAALWVVPGARMKMGREHRVPLSGPAVALLRGLPRLAGTGDLIFPGPRGGILSDMSVSAVMRRMQEDAETEAKMAGRPVSAAGWRDTRTGRPAVPHGLRSSFRDWAAEVGYDRDMAEIALAHLVGSEVERAYRRSDMLERRRAMMERWADVLAGRSGASVVEFRRA	failed
MPKNKGKGGKNRKRGKNEADDEKRELIFKEDGQEYAQVLRMLGNGRCEAMCIDGTKRLCHIRGKMHKKVWIAAGDIVLVGLRDYQDDKADVILKYMSDEARLLKAYGELPENTRLNEGIVGDLEDDDDNNDDDYVEFEDEDIDRI	failed
